In US9446124B2, “Targeting of bone marrow neovasculature” (Philogen S.P.A., priority 2009, dated 2016):
Entries after “also recorded” stand apart in the source; their conditions may differ.

B1: F8-SIP (V5L/K18R): human monoclonal mini-immunoglobulin specific to the alternatively spliced EDA domain of fibronectin; sequence SEQ ID NO:26 (protein)
chain: EVQLLESGGGLVQPGGSLRLSCAASGFTFSLFTMSWVRQAPGKGLEWVSAISGSGGSTYYADSVKGRFTISRDNSKNTLYLQMNSLRAEDTAVYYCAKSTHLYLFDYWGQGTLVTVSSGGGGSGGGSGGGGGEIVLTQSPGTLSLSPGERATLSCRASQSVSMPFLAWYQQKPGQAPRLLIYGASSRATGIPDRFSGSGSGTDFTLTISRLEPEDFAVYYCQQMRGRPPTFGQGTKVEIKSGGSGGPRAAPEVYAFATPEWPGSRDKRTLACLIQNFMPEDISVQWLHNEVQLPDARHSTTQPRKTKGSGFFVFSRLEVTRAEWEQKDEFICRAVHEAASPSQTVQRAVSVNPESSRRGGC
modifications: Synthetic sequence F8-SIP (V5L/K18R) amino acid sequence
B2: 4A1-F16-SIP: human monoclonal mini-immunoglobulin specific to the A1 domain of tenascin-C; sequence SEQ ID NO:25 (protein)
chain: EVQLLESGGGLVQPGGSLRLSCAASGFTFSRYGMSWVRQAPGKGLEWVSAISGSGGSTYYADSVKGRFTISRDNSKNTLYLQMNSLRAEDTAVYYCAKAHNAFDYWGQGTLVTVSRGGGSGGGSGGSSELTQDPAVSVALGQTVRITCQGDSLRSYYASWYQQKPGQAPVLVIYGKNNRPSGIPDRFSGSSSGNTASLTITGAQAEDEADYYCNSSVYTMPPVVFGGGTKLTVLSGGSGGPRAAPEVYAFATPEWPGSRDKRTLACLIQNFMPEDISVQWLHNEVQLPDARHSTTQPRKTKGSGFFVFSRLEVTRAEWEQKDEFICRAVHEAASPSQTVQRAVSVNPESSRRGGC
modifications: Synthetic sequence 4A1-F16-SIP amino acid sequence

Columns and labels:
[1] = test system: target tumour cells and endothelial cells; conditions: acts on microtubuli; literature references; cited from earlier work
[2] = test system: blood vessels present in the bone marrow biopsies of patients with extramedullary AML; experiment: Immunohistochemistry of bone marrow biopsies from patients with extramedullary AML; assay type: binding, human; conditions: biotinylated antibody in SIP format, 2 μg/ml; two patients; FIG. 3
Protocol: (§1) Immunohistochemistry and immunofluorescence analysis were performed on freshly frozen bone marrow biopsies of patients with acute myeloid leukaemia.
(§2) For immunohistochemistry, biotinylated antibodies were used in small immunoprotein format (SIP) under identical conditions (2 μg/ml). Aliquots were prepared from a single batch of antibodies, frozen and used only once to ensure reproducibility of immunohistochemical stainings. Frozen tissue samples were stored at −80° C. Sections of 10 μm thickness were fixed in chilled acetone, rehydrated in TBS buffer (50 mM Tris, 100 mM NaCl, 0.001% Aprotinin, pH 7.4) and blocked with 20% fetal calf serum in TBS. The antibodies were added onto the sections in a final concentration of 2 μg/mL in 3% bovine serum albumin (BSA)/TBS solution and incubated for one hour. After washing in TBS, bound antibodies were detected with streptavidin-biotinylated alkaline phosphatase complex (Biospa, Milan, Italy) in TBS 3% BSA+2 mM MgCl2. The Fast Red substrate (Sigma) was used for detection of phosphatase activity. Sections were counterstained with Gill's hematoxylin No. 2 (Sigma) and mounted with Glycergel mounting medium (Dako, Glostrup, Denmark).

[3] = test system: blood vessels in the bone marrow of AML patients; experiment: Immunohistochemistry of bone marrow biopsies from AML patients; assay type: binding, human; conditions: biotinylated antibody in SIP format, 2 μg/ml, frozen 10 μm sections; FIG. 2
Protocol: as §1, §2

[4] = test system: vessels of HL-60 tumour (granulocytic sarcoma) sections; experiment: Immunohistochemistry of HL-60 tumours from human leukaemia mouse model; assay type: binding; conditions: biotinylated SIP, 2 μg/ml, HL-60 xenograft in nude mice, FIG. 4A
Protocol: as §2
(§3) The mouse model for human leukaemia used here was previously described in Potter et al. (1984). Specifically, nude mice were xenografted with cells from the HL-60 leukaemia cell line and, after development of HL-60 tumours (granulocytic sarcomas), samples were obtained both from said tumours and from the bone marrow of the mice.
Immunohistochemistry studies were then performed as described under “immunohistochemistry” above.

[5] = test system: healthy bone marrow; experiment: Immunohistochemistry of healthy bone marrow from HL-60 xenografted mice; assay type: binding, nude mice; conditions: biotinylated SIP, 2 μg/ml; bone marrow of the same HL-60 xenografted mice; FIG. 4B
Protocol: as §2
as §3, with “mice. […]” for “mice.”

[6] = test system: areas of bone marrow from AML patients with high blast densities; experiment: Multicolour immunofluorescence of AML bone marrow (co-localization with vWF); assay type: binding, human; conditions: biotinylated SIP, 2 μg/mL
Protocol: Biotinylated antibodies were used in small immunoprotein format (SIP) under identical conditions (2 μg/ml). Aliquots were prepared from a single batch of antibodies, frozen and used only once to ensure reproducibility of immunohistochemical stainings.
Sections of 10 μm thickness were fixed in chilled acetone and blocked with 20% fetal calf serum in PBS. Biotinylated F8-SIP (V5L/K18R) and 4A1-F16-SIP were added onto the sections in a final concentration of 2 μg/mL in 3% bovine serum albumin (BSA)/PBS solution and incubated for one hour. Mouse anti-human vWF (von Willebrandt factor) was used to outline endothelial cells. After washing in PBS, bound primary antibodies were detected with Streptavidin-Alexa Fluor 488 and anti-mouse IgG Alexa Fluor 594 (Invitrogen) were used as secondary antibodies. Nuclei were counterstained with DAPI and images were captured on an Axioskop 2 Mot plus microscope equipped with an AxioCam MRc camera (Zeiss). Human

Molecule | concentration range capable of killing target tumour cells and endothelial cells [1] | staining of blood vessels in bone marrow biopsies of extramedullary AML patients [2] | staining of blood vessels in bone marrow biopsies of AML patients [3] | staining of vessels in HL-60 tumour sections [4] | staining of healthy bone marrow sections [5] | staining of vessels in HL-60 tumour sections ([4]; listed as 4A1-F16 SIP) | co-localization with antibodies specific for von Willebrand Factor (vWF) [6]
cemadotin | picomolar concentration range | – | – | – | – | – | –
CC[C@]1(O)C[C@H]2CN(CCc3c([nH]c4ccccc34)[C@@](C(=O)OC)(c3cc4c(cc3OC)N(C)[C@H]3[C@@](O)(C(=O)NN)[C@H](O)[C@]5(CC)C=CCN6CC[C@]43[C@@H]65)C2)C1 [4-desacetyl-3-vinblastine monohydrazide] | picomolar concentration range | – | – | – | – | – | –
B1 | – | also visible and was either similar or slightly weaker than the level of staining observed with 4A1-F16-SIP | also visible, although the level of staining was weaker than that observed with 4A1-F16-SIP; also recorded: stained a large proportion of these blood vessels but fewer than observed with the 4A1-F16-SIP antibody | strongly stained the vessels of the HL-60 tumour sections; also recorded: strongly stained the vessels present in the HL-60 tumour (granulocytic sarcoma) sections | no staining was visible | – | –
B2 | – | strongly stained the blood vessels present in the bone marrow biopsies in both cases | strongly stained the blood vessels present in the bone marrow biopsy; also recorded: capable of staining the vast majority of blood vessels | strongly stained the vessels of the HL-60 tumour sections | no staining was visible | strongly stained the vessels present in the HL-60 tumour (granulocytic sarcoma) sections | excellent co-localization
